Test results from patent publication US20120064078A1.

Molecular target: intracellular Hsp90α (human) (human) (UniProt P07900)
Assay: cell-based or functional assay

human PP5 in MCF-7 cells (overexpressed from pcDNA3.1/Myc-His(-) or endogenous, knocked down by siRNA) (from UniProt P53041 2-499)
Thr90 phosphorylated Hsp90α (pT90-Hsp90α) level in MCF-7 cells on overexpression of human PP5 (fold of control): 0.55
Thr90 phosphorylated Hsp90α (pT90-Hsp90α) level in MCF-7 cells on siRNA knock-down of human PP5 (fold of control): 1.58
